Patent US20080014191A1

Target: wild-type cystic fibrosis transmembrane conductance regulator (CFTR) (Homo sapiens (Human)) (UniProt P13569)
Assay: CFTR co-IP, MudPIT MS; BHK wt

wild-type cystic fibrosis transmembrane conductance regulator (CFTR) (Homo sapiens (Human)), sequence (P13569 whole entry): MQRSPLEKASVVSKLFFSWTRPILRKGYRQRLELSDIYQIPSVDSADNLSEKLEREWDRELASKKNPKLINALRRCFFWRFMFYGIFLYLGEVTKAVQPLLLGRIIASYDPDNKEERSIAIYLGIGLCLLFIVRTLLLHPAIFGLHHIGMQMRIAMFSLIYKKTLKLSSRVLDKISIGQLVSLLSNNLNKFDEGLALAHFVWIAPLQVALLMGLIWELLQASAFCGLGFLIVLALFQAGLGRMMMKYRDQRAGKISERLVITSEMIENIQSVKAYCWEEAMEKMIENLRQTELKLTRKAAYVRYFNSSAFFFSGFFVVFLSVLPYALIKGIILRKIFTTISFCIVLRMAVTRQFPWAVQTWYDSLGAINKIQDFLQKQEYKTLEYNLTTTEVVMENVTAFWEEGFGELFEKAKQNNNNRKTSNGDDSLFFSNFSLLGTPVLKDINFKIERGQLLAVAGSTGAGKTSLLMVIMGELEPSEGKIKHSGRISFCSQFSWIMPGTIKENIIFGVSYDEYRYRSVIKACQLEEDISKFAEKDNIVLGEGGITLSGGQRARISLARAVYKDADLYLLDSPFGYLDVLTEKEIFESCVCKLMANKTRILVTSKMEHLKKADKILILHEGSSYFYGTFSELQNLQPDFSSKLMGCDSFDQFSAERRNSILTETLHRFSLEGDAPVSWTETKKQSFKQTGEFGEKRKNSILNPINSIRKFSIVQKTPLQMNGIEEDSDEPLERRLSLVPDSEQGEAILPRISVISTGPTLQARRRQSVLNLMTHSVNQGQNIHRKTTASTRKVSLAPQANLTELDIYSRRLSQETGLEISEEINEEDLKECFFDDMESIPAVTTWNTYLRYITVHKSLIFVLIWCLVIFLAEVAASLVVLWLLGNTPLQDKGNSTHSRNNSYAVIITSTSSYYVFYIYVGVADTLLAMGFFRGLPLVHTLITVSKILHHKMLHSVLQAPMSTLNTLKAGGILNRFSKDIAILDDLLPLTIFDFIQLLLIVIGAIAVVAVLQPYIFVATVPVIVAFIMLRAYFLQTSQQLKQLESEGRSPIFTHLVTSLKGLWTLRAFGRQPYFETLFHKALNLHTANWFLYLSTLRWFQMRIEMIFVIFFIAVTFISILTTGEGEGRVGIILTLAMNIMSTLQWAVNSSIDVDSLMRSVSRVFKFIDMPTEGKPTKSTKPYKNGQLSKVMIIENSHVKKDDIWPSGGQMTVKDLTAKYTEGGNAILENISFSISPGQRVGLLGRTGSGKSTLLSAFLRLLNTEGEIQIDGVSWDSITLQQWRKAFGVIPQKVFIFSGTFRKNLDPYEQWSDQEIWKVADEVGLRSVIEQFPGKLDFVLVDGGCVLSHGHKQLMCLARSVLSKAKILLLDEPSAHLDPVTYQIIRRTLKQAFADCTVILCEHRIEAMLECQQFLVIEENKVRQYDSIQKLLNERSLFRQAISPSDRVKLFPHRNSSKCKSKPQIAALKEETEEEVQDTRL

- % sequence coverage: 10%
- total spectra: 7 spectra
- unique spectra: 4 spectra
B1: Calnexin (protein, UniProt P27824 21-592, looked up)
chain: HDGHDDDVIDIEDDLDDVIEEVEDSKPDTTAPPSSPKVTYKAPVPTGEVYFADSFDRGTLSGWILSKAKKDDTDDEIAKYDGKWEVEEMKESKLPGDKGLVLMSRAKHHAISAKLNKPFLFDTKPLIVQYEVNFQNGIECGGAYVKLLSKTPELNLDQFHDKTPYTIMFGPDKCGEDYKLHFIFRHKNPKTGIYEEKHAKRPDADLKTYFTDKKTHLYTLILNPDNSFEILVDQSVVNSGNLLNDMTPPVNPSREIEDPEDRKPEDWDERPKIPDPEAVKPDDWDEDAPAKIPDEEATKPEGWLDDEPEYVPDPDAEKPEDWDEDMDGEWEAPQIANPRCESAPGCGVWQRPVIDNPNYKGKWKPPMIDNPSYQGIWKPRKIPNPDFFEDLEPFRMTPFSAIGLELWSMTSDIFFDNFIICADRRIVDDWANDGWGLKKAADGAAEPGVVGQMIEAAEERPWLWVVYILTVALPVFLVILFCCSGKKQTSGMEYKKTDAPQPDVKEEEEEKEEEKDKGDEEEEGEEKLEEKQKSDAEEDGGTVSQEEEDRKPKAEEDEILNRSPRNRKPRRE
